Test results taken from a protein production outcome set (Wang et al. 2014).

Assay: label from the status in PepcDB records

Sequence | protein production
MRAAALAGAAGVVLCLLGGIGGAVAALSLWLAQPAFALAVSWARGTRAVPGQPRAIAQALPPLLAIWGVGLLALAALISWPLTALRDSGSLAAALALSVAVSAALLGLWRTWPLWGEVERDGGALAPRWQALAAQELHAWRGLLAAALVLAMCTLAVVLAWPGWLSGGLRWGLAVAACVLLPVAHLLLQRTPAPMRSDVPQTRQAADFFSEAAAEPRPLEPVAQHQLVPELFEAARSGRVDRALQLLEAGADPQALPLPEWRDQRSLPALAAVLPDLRLLRELIVRRVDVNQPHRGMTPLLAATRDSWHGRPDAVMTLLANGADPRASDNDGNTPLHHAVRSSDPGVAALLHDAAAELDALNNEGHSPLAMACQVGNWRLAKFLLERGAQSEPEGGAPVLLAAAGTEEDDPAGVQLLLKHKARVDARDRQRRSALHEAALAGHGDIVEALLSAGANLEARDLLGRTPWLDAARQARSAVLERLVARKADVLAIDGDGRNALMLACAADNVSPALIRRLLDLQVPADSVDAHGRRAVDVAAEAGRWAIVQLLDPAYPLPAAVSDAQGDTPGAAVLPDRPPLVLLREGLQLGQRDGLVALARLCAPDELGGLLHDAHLALNAEAVDWLLRHGADAEVRDACGDVPMFALLSRGVEAVPALQALLRHGVSPAGAGGLTRLLSACVQHDAASRGLEQFALELLERGADPFAPSAAGDPPLSLAVRLGWLRLQHWLLEHGVDREARDSHGMTALHLATALGRDASLKLLVKQGASPEARAADGQTPLGVALSIGRRDLADWLDWRIWSLPRRTLREADVPAAAMTGDTDAVRRLIDLGLAVDAVDAQGCTALLRAAGGGHLGVVTHLLGRGADPQRAANSGATPLSAAVSMRQTEIVAALLHAGAQIEHRLPGGVTVLMLACALGLPDIVARLLTAAADVHATDNQGLAPLHCAALYGFTARDKNRLLALLDTLLLAGADPDYLAGGRVSPLLLLLGARAEPGTSCDEQVVLAGVERLLDEDVSLDVADQRGFGPLHLAALHGLPLLVQRLLRAGADADRRDALNRTPREIAIMRGFIDVAGQFEPALPGVSSMARFLREGR | failed
MSDPLTAQEQHKRRQAVRELMPRTPFIGGLGIVFERYEPDDVVIRLPFRTDLTNDGTYFHGGVIASVMDTAGAAAAWSNHDFDRGTRAATVAMSIQYTGAAKRCDLLCHARTARRRKELTFTEITATDPDGNIVAHAVQTYRIVLEHHHHHH | failed
MAVKHASAPKAYINITGLGFAKLTKEGAELKYSDITKTRGLQKIGVETGGELKTAYADGGPIESGNTDGEGKISLQMHAFPKEIRKIVFNEDYDEDGVYEEKQGKQNNYVAVWFRQERRDGTFRTVLLPKVMFTNPKIDGETAEKDWDFSSEEVEGEALFPLVDNKKSVRKYIFDSANMTNHGGDGEKGEEAFLKKILGEEYTGNVTEDNEETLLEHHHHHH | not failed
MKPSHQQQKQASAAKDEKKDIIPLSAEKADGAEGWLNNSTILYTASNPTKTELFPYRIFTGKAKKLYQTDGQIVDVQINAREQMILLQITHSQKTAVVLLNAEGETLYEKDYETYELEAAWNQYDPYQMMVTEFNENWDFHTYQVNAKKDESFLSPVQVPFIHWTSKNTFDYVKEGRDDKTGPLYTFDTASKTEQKLEDNVLFFDSFHQMSFTVKSASGGKGTYQFKTPQSTSPVTAKWPLQAKYTSLAPMEYDYDEAGSLFYTFKQSGDAYKLAAINVASGETKDLVSLREMEPIQISPNGKYALYGFHFEQIILLKSHETKQLIIDQKEMELEHHHHHH | failed
MKSILEQLSSITVVVADTGDLDAIKKFQPRDATTNPSLILAAAKNPDYIKLIDQALESSRKSLPAGFSESELIKETIDQVSVFFGKEILNLISGRVSTEVDARLSFDTEATVTKARKLINHYKSFGINKERILIKIASTWEGIKAAEILEKEGIKCNLTLLFNFCQAVACANAKITLISPFVGRILDWHKAKTGKDNFAGCEDPGVISVTKIYNYFKEKGFKTEVMGASFRNIDEIKELAGCDLLTIAPKFLDELNREEGELIKKLDEDTQSQSSIDYKFDEKDFRLSMLEDQMASEKLSEGITGFSKAIEELEELLLKRLSEINNQKLISTT | failed
MGHHHHHHSHMAAAIASSLIRQKRQAREREKSNACKCVSSPSKGKTSCDKNKLNVFSRVKLFGSKKRRRRRPEPQLKGIVTKLYSRQGYHLQLQADGTIDGTKDEDSTYTLFNLIPVGLRVVAIQGVQTKLYLAMNSEGYLYTSELFTPECKFKESVFENYYVTYSSMIYRQQQSGRGWYLGLNKEGEIMKGNHVKKNKPAAHFLPKPLKVAMYKEPSLHDLTEFSRSGSGTPTKSRSVSGVLNGGKSMSHNEST | not failed
MKNLVVVDHPLIKHKLTIMRDKNTGPKEFRELLREITLLLAYEATRHLKCEEVEVETPITKTIGYRINDKDIVVVPILRAGLVMADGILELLPNASVGHIGIYRDPETLQAVEYYAKLPPLNDDKEVFLLDPMLATGVSSIKAIEILKENGAKKITLVALIAAPEGVEAVEKKYEDVKIYVAALDERLNDHGYIIPGLGDAGDRLFRTK | not failed
MSSLFVVGIGPGSNDLMTPQASLAIERSEYVIGFSLYVSFIKEKFPNKIYISNGMQGEIERAKKAIELARSGHNVSIISSGDAGIYGIAGAVFEILSTLEDNMPEVSVVPGIS | not failed
NAEKVALAKKVADESAVLLENRNDILPLDLNKYKSVAVVGPNSNQAVLGDYAWTMGDTKEAVSLLQGLQESAGDKIMIRHAEGCDWWSQDKSHIAEAVEVVRNSDIAVVAVGTRSTYLGRSPKYSTAGEGFDLSSLELPGVQEELLKEIKKTGKPMIVVLIAGKPLAMPWVKENADALLVQWYAGEQQGCTLADILLGKVNPSGKLNVSFPRSTGNTPCFYNHFVTDREEPFDQPGTPEEPKGHYIFDKPEPLWNFGHGKSYTTF | not failed
MALKLGLTEAVSLGITHISIYCDHFQIFELVMWRSVPDKDSIAMIMYDVQRIRQQLTSSTPLLVTGNQTNKLAYELALETLVSEISISIEEKALTCDKN | failed
MSETDTAWIETALTSARPQAVGALLRYFRDLDTAEEAFQNACLRALKTWPQNGPPRDPAAWLIMVGRNVAIDEVRRARKQQPLPEDDQAISDLDDAEGALAERLDGSHYRDDILRLMFICCHPQLPATQQIALALRIVSGLTVKQIARAFLVSEAAMEQRITRAKAKVAEAGTPFETPGPIERSERLAGVAAMIYLIFNEGYSASGDTAEIRKPLCEEAIRLARLLLRLFQSEPEIMGLAALLLLQHARSAARFADDGSLILLEDQDRSLWNGSMIAEGLALIDKAMRHRRSGPYQIQAAIAALHARAATPEETDWAQIDLLYGALELAQPSPVVTLNRAVAVSKVRGPQAALDLIEPLAPKLGNYFHFHGVRGAFLMQLGRNDEARIAFDRAIALANTSAEAAHIRMHIDRLIRDSQPKSSNGSARQGAKAK | failed
MDRSPERRTAVMIWGALVAGPALFLVVALALPLAGEPAPGIAQPLLLVLTGLVLVEVPLSWLWAVRARLAGKAGGEAISVEEQARTRLIIAAALCEGAALFAVVVFMVTRDARALPLFAIAFGALLAHYPGDRHWARLCRGSGAGSSAPPNRLMRG | failed
MTNQRTMVVGYDGSEESNLAVQWAAKHAILRDCSLHVVHCSLWVLLSHNRGPVPGVADSGLERAAQKVLEEGMALAKETVPDLEVRTTLLHGMPRDHLAHVSVGAEMLVLGSRGLGGFMGLLVGSVSLEMAATAECPVVVIRADDHPEGPVLLAVDDAGSPAALEDACDFAAATGADLMIVHVLHEPVGYRRLREPVEAYPEAEALLDSVLSQARHKAPGIAVTGELLVDASFSKAIVKASQGARITVLGTKGHGLIKGTIGSTAHAVLHHAHSPVLVSRRRATSEVA | failed
MSKTANFLSLRSNPLPPIFSSTGNSPFLRASSALNLPTTASKPFHSWIRASSRRRLVLGGFGGASLWMNNNMSGKFGGKSFIASARQTNPSPVEQALNKVDWPETFPFKEEDFQRYDESSDSTFYEAPRFVTHIDDPAIAALTKYYSKVLPQSDTPGVSILDMCSSWVSHYPPGYRQERIVGMGMNEEELKRNPVLTEYIVQDLNLNSNLPFEDNSFQVITNVVSVDYLTKPLEVFKEMNRILKPGGLALMSFSNRCFFTKAISIWTSTGDADHALIVGSYFHYAGGFEAPQAVDISPNPGRSDPMYVVYSRKLPMV | failed
MRRVVIRTEALSCPLDGDEDSNELRLRPLVPDAQEWKYPKSKLFPRHAAWSCHSGGGGGGGGGRVFTNKVNAVEEFNLGGLKDSESDSDSE | failed
